Measured values as given in paper PMC5836133, “The intracellular immune receptor Rx1 regulates the DNA-binding activity of a Golden2-like transcription factor”.
“And” between values parts separate entries of the source, which are not always exact repeats. Equal values may be shown once.

Tests used:
NbGlk1(83-243) [1] = biological target: T1, NbGlk1(83-243) (Nicotiana benthamiana); assay: fluorescence anisotropy; Fluorescence anisotropy: 20 mM Tris-HCl pH 7.4, 140 mM NaCl, 1 mM DTT, 10 nM labelled DNA; temperature not stated. PBM conditions as in cited protocols.; details: protein: recombinant, tags: His6 (pET14b), annealed complementary oligonucleotides
T1 chain: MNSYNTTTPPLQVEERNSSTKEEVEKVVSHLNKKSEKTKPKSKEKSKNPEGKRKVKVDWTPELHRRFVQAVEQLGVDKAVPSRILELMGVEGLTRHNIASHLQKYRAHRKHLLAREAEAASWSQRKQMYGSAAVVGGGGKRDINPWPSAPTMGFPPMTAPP

NbGlk1(83-402) [2] = biological target: T2, NbGlk1(83-402) (Nicotiana benthamiana); assay: as above; details: protein: recombinant, tags: His6 (pET14b), annealed complementary oligonucleotides
T2 chain: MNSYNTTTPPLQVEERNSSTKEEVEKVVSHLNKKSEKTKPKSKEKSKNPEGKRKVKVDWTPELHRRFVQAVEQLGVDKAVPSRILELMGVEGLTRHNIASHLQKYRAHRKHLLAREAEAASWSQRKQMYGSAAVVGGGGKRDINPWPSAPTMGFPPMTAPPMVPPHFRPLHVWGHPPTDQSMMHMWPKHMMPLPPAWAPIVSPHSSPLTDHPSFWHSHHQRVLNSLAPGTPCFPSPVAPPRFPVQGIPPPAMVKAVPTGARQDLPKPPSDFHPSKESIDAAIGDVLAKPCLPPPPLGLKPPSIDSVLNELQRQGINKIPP

NbGlk1(83-402) [3] = biological target: T3, NbGlk1(83-402) (Nicotiana benthamiana, UniProt A0A1S4ALG4 83-410); assay: fluorescence anisotropy; details: 20 mM Tris-HCl pH 7.4, 140 mM NaCl, 1 mM DTT, 10 nM fluorescein-labelled dsDNA, temperature not stated, Kd unit uM inferred from text (Kd >1 uM)
T3 sequence: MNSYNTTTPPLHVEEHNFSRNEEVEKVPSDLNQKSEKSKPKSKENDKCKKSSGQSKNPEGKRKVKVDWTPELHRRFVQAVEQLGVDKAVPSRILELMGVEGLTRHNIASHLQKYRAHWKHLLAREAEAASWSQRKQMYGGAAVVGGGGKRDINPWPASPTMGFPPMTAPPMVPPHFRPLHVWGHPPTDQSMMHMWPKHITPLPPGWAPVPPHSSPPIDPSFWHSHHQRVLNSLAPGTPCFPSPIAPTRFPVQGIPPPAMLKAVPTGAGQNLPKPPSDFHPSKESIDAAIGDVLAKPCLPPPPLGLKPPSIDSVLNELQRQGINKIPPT

NbGlk1(83-243) [4] = biological target: T4, NbGlk1(83-243) (Nicotiana benthamiana, UniProt A0A1S4ALG4 83-252); assay: fluorescence anisotropy; details: 20 mM Tris-HCl pH 7.4, 140 mM NaCl, 1 mM DTT, 10 nM fluorescein-labelled dsDNA, temperature not stated, Kd unit uM inferred from text (Kd >1 uM)
T4 sequence: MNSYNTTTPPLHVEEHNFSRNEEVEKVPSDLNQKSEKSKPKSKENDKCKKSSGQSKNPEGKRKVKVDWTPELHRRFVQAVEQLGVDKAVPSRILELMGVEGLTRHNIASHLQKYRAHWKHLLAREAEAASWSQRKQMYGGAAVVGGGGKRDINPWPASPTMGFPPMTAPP

[5] = system: NbGlk1(1-243) (Nicotiana benthamiana); assay: fluorescence anisotropy; details: 20 mM Tris-HCl pH 7.4, 140 mM NaCl, 1 mM DTT, 10 nM fluorescein-labelled dsDNA, temperature not stated, Kd unit uM inferred from text (Kd >1 uM)
NbGlk1(83-402) [6] = biological target: T3, NbGlk1(83-402); assay: fluorescence anisotropy; no Rx1 (Table 2 series); 20 mM Tris-HCl pH 7.4, 140 mM NaCl, 1 mM DTT; 10 nM fluorescein-labelled dsDNA; temperature not stated; Kd unit uM inferred from text (Kd >1 uM); details: protein: recombinant; tags: His6 (pET14b); label: 6-carboxyfluorescein end label on FA-1; annealed complementary oligonucleotides
NbGlk1(83-402) [7] = biological target: T3, NbGlk1(83-402); assay: fluorescence anisotropy; no Rx1; 20 mM Tris-HCl pH 7.4, 140 mM NaCl, 1 mM DTT; 10 nM fluorescein-labelled dsDNA; temperature not stated; Kd unit uM inferred from text (Kd >1 uM); details: protein: recombinant; tags: His6 (pET14b); label: 6-carboxyfluorescein end label on FA-1; annealed complementary oligonucleotides
NbGlk1(83-243) [8] = biological target: T4, NbGlk1(83-243); assay: as above; details: protein: recombinant; tags: His6 (pET14b); label: 6-carboxyfluorescein end label on FA-1; annealed complementary oligonucleotides
[9] = label: 6-carboxyfluorescein end label on FA-3
[10] = label: 6-carboxyfluorescein end label on FA-5
[11] = label: 6-carboxyfluorescein end label on FA-1

B1: AGATTT (concatenated AGATTTCC; FA-3/FA-4) (dsDNA)
DNA 1: CAGATTTCCACAGATTTCCACAGATTTCCACAGATTTCCACAGATTTCCC
DNA 2: GGGAAATCTGTGGAAATCTGTGGAAATCTGTGGAAATCTGTGGAAATCTG
Kd (NbGlk1(83-243) [1]; [9]): 230 ± 10 nM | Kd (NbGlk1(83-402) [2]; [9]): 160 nM and 220 nM | Kd (NbGlk1(83-402) [3]; + Rx1(1-144)): 0.46 µM | Kd (NbGlk1(83-402) [3]; + Rx1(1-489)): 0.34 µM | Kd (NbGlk1(83-402) [3]; + Rx1(GST-1-144)): 0.73 µM | Kd (NbGlk1(83-402) [3]; no Rx1 (Table 2 series)): 0.22 µM | Kd (NbGlk1(83-402) [3]; no Rx1): 0.16 µM | Kd (NbGlk1(83-243) [4]; + Rx1(1-144)): 0.76 µM | Kd (NbGlk1(83-243) [4]; + Rx1(1-489)): 0.65 µM | Kd (NbGlk1(83-243) [4]; no Rx1): 0.23 µM

B2: GATATC (concatenated GGATATCC; FA-5/FA-6) (dsDNA)
DNA 1: CGGATATCCACGGATATCCACGGATATCCACGGATATCCACGGATATCCC
DNA 2: GGGATATCCGTGGATATCCGTGGATATCCGTGGATATCCGTGGATATCCG
Kd (NbGlk1(83-243) [1]; [10]): 180 ± 10 nM | Kd (NbGlk1(83-402) [2]; [10]): 80 nM and 110 nM | Kd (NbGlk1(83-402) [3]; + Rx1(1-144)): 0.3 µM | Kd (NbGlk1(83-402) [3]; + Rx1(1-489)): 0.19 µM | Kd (NbGlk1(83-402) [3]; + Rx1(GST-1-144)): 0.34 µM | Kd (NbGlk1(83-402) [3]; no Rx1 (Table 2 series)): 0.11 µM | Kd (NbGlk1(83-402) [3]; no Rx1): 0.08 µM | Kd (NbGlk1(83-243) [4]; + Rx1(1-144)): 0.4 µM | Kd (NbGlk1(83-243) [4]; + Rx1(1-489)): 0.5 µM | Kd (NbGlk1(83-243) [4]; no Rx1): 0.18 µM | Kd ([5]; + Rx1(1-144)): > 1 µM | Kd ([5]; + Rx1(1-489)): > 1 µM | Kd ([5]; no Rx1, text: only a weak affinity): > 1 µM

B3: No site (FA-1/FA-2) (dsDNA)
DNA 1: CACTGTGACACACTGTGACACACTGTGACACACTGTGACACACTGTGACC
DNA 2: GGTCACAGTGTGTCACAGTGTGTCACAGTGTGTCACAGTGTGTCACAGTG
Kd (NbGlk1(83-402) [6]): 320 ± 30 nM | Kd (NbGlk1(83-402) [7]): 180 ± 10 nM | Kd (NbGlk1(83-243) [8]): 330 ± 20 nM | Kd (NbGlk1(83-243) [1]; [11]): 330 ± 20 nM | Kd (NbGlk1(83-402) [2]; [11]): 320 nM and 180 nM
